Experimental data published in paper PMC6265486 (Nucleic Acids Research, 2018).

How the values were obtained:
[1] = target: T1, human mtSSB (Homo sapiens) (UniProt Q04837); experiment: AFM; settings: Anisotropy: 30 mM HEPES-KOH pH 7.5, 1 mM 2-mercaptoethanol, 5 mM MgCl2, 0.01% NP-40, 50 mM NaCl, 20 nM oligo, 20 C. AFM/DREEM: incubation in 20 mM HEPES pH …
T1 sequence: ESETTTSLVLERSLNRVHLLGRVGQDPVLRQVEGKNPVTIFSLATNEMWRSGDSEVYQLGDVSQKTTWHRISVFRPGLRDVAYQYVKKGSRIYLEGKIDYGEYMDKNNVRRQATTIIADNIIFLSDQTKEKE

[2] = target: T2, human mtSSB (Homo sapiens, UniProt Q04837 17-148); experiment: fluorescence anisotropy; 5 mM MgCl2, 50 mM NaCl; tetramers; Anisotropy: 30 mM HEPES-KOH pH 7.5, 1 mM 2-mercaptoethanol, 5 mM MgCl2, 0.01% NP-40, 50 mM NaCl, 20 nM oligo, 20 C. AFM/DREEM: incubation in 20 mM HEPES pH 7.5
T2 sequence: T1 sequence

[3] = target: T2, human mtSSB; experiment: fluorescence anisotropy; 5 mM MgCl2, 50 mM NaCl; Anisotropy: 30 mM HEPES-KOH pH 7.5, 1 mM 2-mercaptoethanol, 5 mM MgCl2, 0.01% NP-40, 50 mM NaCl, 20 nM oligo, 20 C. AFM/DREEM: incubation in 20 mM HEPES pH 7.5
[4] = target: T3, E. coli SSB (Escherichia coli, UniProt P0AGE0 1-178); experiment: fluorescence anisotropy; 5 mM MgCl2, 50 mM NaCl; tetramers; Hill coefficient 1.84; Anisotropy: 30 mM HEPES-KOH pH 7.5, 1 mM 2-mercaptoethanol, 5 mM MgCl2, 0.01% NP-40, 50 mM NaCl, 20 nM oligo, 20 C. AFM/DREEM: incubation in 20 mM HEPES pH 7.5
T3 sequence (P0AGE0 whole entry): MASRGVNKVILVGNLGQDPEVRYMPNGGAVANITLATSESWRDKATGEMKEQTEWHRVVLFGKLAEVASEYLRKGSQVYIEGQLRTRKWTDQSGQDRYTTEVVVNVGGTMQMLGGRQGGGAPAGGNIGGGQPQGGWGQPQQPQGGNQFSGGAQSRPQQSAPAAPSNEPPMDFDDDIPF

[5] = target: T2, human mtSSB; experiment: fluorescence anisotropy; 5 mM MgCl2, 50 mM NaCl; tetramers; Hill coefficient 2.00; Anisotropy: 30 mM HEPES-KOH pH 7.5, 1 mM 2-mercaptoethanol, 5 mM MgCl2, 0.01% NP-40, 50 mM NaCl, 20 nM oligo, 20 C. AFM/DREEM: incubation in 20 mM HEPES pH 7.5
[6] = target: T3, E. coli SSB; experiment: AFM/DREEM; 100 mM NaCl; 10 mM Mg(OAc)2 in imaging buffer; 35% one strand wrapped, 65% two; Anisotropy: 30 mM HEPES-KOH pH 7.5, 1 mM 2-mercaptoethanol, 5 mM MgCl2, 0.01% NP-40, 50 mM NaCl, 20 nM oligo, 20 C. AFM/DREEM: incubation in 20 mM HEPES pH 7.5
[7] = target: T2, human mtSSB; experiment: AFM/DREEM; 100 mM NaCl; 10 mM Mg(OAc)2 in imaging buffer; 85% one strand wrapped, 15% two; Anisotropy: 30 mM HEPES-KOH pH 7.5, 1 mM 2-mercaptoethanol, 5 mM MgCl2, 0.01% NP-40, 50 mM NaCl, 20 nM oligo, 20 C. AFM/DREEM: incubation in 20 mM HEPES pH 7.5
[8] = target: the molecule itself; experiment: AFM volume measurement; free mtSSB (8.4 nM tetramers) diluted in 20 mM HEPES (pH 7.5), 100 mM NaCl, deposited on freshly cleaved mica, imaged in air (AC mode); AFM volume converted to molecular weight with a calibration curve

Question: Which binding signal (KSP/KNSP (gap vs duplex specificity)) [1] does the source give for linear 2030-bp DNA with 37-nt ssDNA gap here?
Answer: The binding signal (KSP/KNSP (gap vs duplex specificity)) was 14500.

Question: How did the Kd [2] turn out when ATGCTAGCTTGGCTGTGACTTTAAACCTGTCGTGCCAGCT (ssDNA, fluorescein on internal T21) [D1-F 40-nt ssDNA] was run?
Answer: The Kd was 1.8 ± 0.9 nM.

B1: D1-F/D2 40-bp dsDNA (dsDNA)
DNA 1: ATGCTAGCTTGGCTGTGACTTTAAACCTGTCGTGCCAGCT
DNA 2: AGCTGGCACGACAGGTTTAAAGTCACAGCCAAGCTAGCAT
modifications: fluorescein on internal T21 of D1
Question: Does B1 bind [3]?
Answer: Result: no binding

B2: 5'-fluorescein 90-nt oligonucleotide (ssDNA)
DNA: TAATGCTATCACTATTCGTAGACTTGACCACACCTTGTCAGCTCACGCTCCAAATGAAAGTATAGCTAAACAGGTTATTGACCATATGCA
modifications: fluorescein on 5'-terminal T
Question: Which Kd [4] does the source give for B2 here?
Answer: The Kd was 25.4 ± 1.3 nM.

Question: What about the Kd [5] of the same molecule?
Answer: Its Kd is 14.7 ± 0.5 nM.

B3: 90-nt oligonucleotide (ssDNA)
DNA: B2 DNA
Question: Does B3 bind [6]?
Answer: Result: binds

Question: Does B3 bind [7]?
Answer: Result: binds

B4: human mitochondrial single-stranded DNA binding protein (natural protein, UniProt Q04837 17-148, looked up)
chain: T1 sequence
Question: For B4, which “stoichiometry N” value [8] is on record?
Answer: The value was 4.
